Measured values taken from the Immune Epitope Database (IEDB).

Columns and labels:
[1] = biological target: HLA-A*24:02; experiment: IEDB peptide-MHC binding, purified MHC/competitive/radioactivity; ≥ and ≤ were set here for values at or beyond the usual limits of such assays; conditions: source organism: Homo sapiens
[2] = biological target: HLA-B*15:42; experiment: IEDB peptide-MHC binding, purified MHC/competitive/fluorescence; filed as Kd, often an IC50 or EC50 that approximates it; ≥ and ≤ were set here for values at or beyond the usual limits of such assays; conditions: source organism: Homo sapiens
[3] = biological target: HLA-B*45:06; experiment: as above; conditions: source organism: Homo sapiens
[4] = biological target: HLA-A*68:23; experiment: as above; conditions: source organism: Homo sapiens
[5] = biological target: HLA-B*83:01; experiment: as above; conditions: source organism: Homo sapiens
[6] = biological target: HLA-A*32:15; experiment: as above; conditions: source organism: Homo sapiens
[7] = biological target: HLA-B*73:01; experiment: IEDB peptide-MHC binding, purified MHC/direct/fluorescence; filed as Kd, often an IC50 or EC50 that approximates it; ≥ and ≤ were set here for values at or beyond the usual limits of such assays; conditions: source organism: Mus musculus
[8] = biological target: HLA-C*07:02; experiment: as above; conditions: source organism: Homo sapiens
[9] = biological target: HLA-C*06:02; experiment: as above; conditions: source organism: Homo sapiens
[10] = biological target: HLA-C*05:01; experiment: as above
[11] = biological target: HLA-A*02:01; experiment: IEDB peptide-MHC binding, purified MHC/competitive/radioactivity; filed as Kd, often an IC50 or EC50 that approximates it; ≥ and ≤ were set here for values at or beyond the usual limits of such assays; conditions: source organism: Human immunodeficiency virus 1
[12] = biological target: HLA-B*07:02; experiment: IEDB peptide-MHC binding, purified MHC/competitive/radioactivity; ≥ and ≤ were set here for values at or beyond the usual limits of such assays
[13] = biological target: HLA-B*57:01; experiment: IEDB peptide-MHC binding, purified MHC/competitive/fluorescence; filed as Kd, often an IC50 or EC50 that approximates it; ≥ and ≤ were set here for values at or beyond the usual limits of such assays; conditions: source organism: Rickettsia bellii RML369-C
[14] = biological target: HLA-B*27:03; experiment: as above; conditions: source organism: Rickettsia bellii RML369-C
[15] = biological target: HLA-A*80:01; experiment: as above; conditions: source organism: Rickettsia bellii RML369-C
[16] = biological target: HLA-A*02:01; experiment: as above; conditions: source organism: Rickettsia bellii RML369-C
[17] = biological target: HLA-A*03:01; experiment: as above; conditions: source organism: Rickettsia bellii RML369-C
[18] = biological target: HLA-B*18:01; experiment: as above; conditions: source organism: Rickettsia bellii RML369-C
[19] = biological target: HLA-A*02:11; experiment: as above; conditions: source organism: Rickettsia bellii RML369-C
[20] = biological target: HLA-A*29:02; experiment: as above; conditions: source organism: Rickettsia bellii RML369-C
[21] = biological target: HLA-C*03:03; experiment: IEDB peptide-MHC binding, purified MHC/direct/fluorescence; filed as Kd, often an IC50 or EC50 that approximates it; ≥ and ≤ were set here for values at or beyond the usual limits of such assays; conditions: source organism: Rickettsia bellii RML369-C

NYARTEDFF
IC50 [1]: 67 nM

MPMKGRFPI
Kd [2]: ≥ 5000 nM | Kd [3]: ≥ 5000 nM | Kd [4]: 271 nM | Kd [5]: 69 nM | Kd [6]: 295 nM | Kd [7]: 6000 nM | Kd [8]: ≥ 20000 nM | Kd [9]: ≥ 20000 nM | Kd ([10]; source organism: Homo sapiens): ≥ 20000 nM

FPVRPQVPL
Kd [11]: ≥ 35000 nM | IC50 ([12]; source organism: Human immunodeficiency virus 1): 16 nM

TYSVSFDSLF
IC50 [1]: 14 nM

FATCGIFAL
IC50 ([12]; source organism: Lymphocytic choriomeningitis virus (strain Armstrong) (clone 53b)): 6230 nM

FTIGNMFSL
Kd [13]: ≥ 20000 nM | Kd [14]: ≥ 20000 nM | Kd [15]: ≥ 20000 nM | Kd [16]: 24.4 nM | Kd [17]: ≥ 20000 nM | Kd [18]: ≥ 20000 nM | Kd [19]: 5.9 nM | Kd [20]: 738 nM | Kd [21]: 55 nM | Kd ([10]; source organism: Rickettsia bellii RML369-C): ≥ 20000 nM
